According to the supplement of paper PMC9112550, “Optimization of the antimicrobial peptide Bac7 by deep mutational scanning” (BMC Biology, 2022):

Test system: Escherichia coli TOP10
Experiment: shrunken log2 fold change of peptide-encoding DNA abundance (4.5 h post-induction vs induction); higher = less antimicrobial activity (less host growth inhibition)
Settings: time post-induction: 4.5 h; library: site-saturation at positions 5, 18, 19, 20
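Further: peptides expressed intracellularly from a pBAD plasmid library in pooled LB shake-flask culture, induced with 0.3% L-arabinose, DNA abundance read by NGS, three biological replicates, DESeq2 with apeglm shrinkage.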

| Sequence | shrunken log2 fold change |
| --- | --- |
| RRIRGRPPRLPRPRPRPMLIPRP | 0.312 |
| RRIRGRPPRLPRPRPRPMLKPRP | 0.575 |
| RRIRGRPPRLPRPRPRPMMAPRP | 1.38 |
| RRIRGRPPRLPRPRPRPMMCPRP | 0.0367 |
| RRIRGRPPRLPRPRPRPMMFPRP | 0.69 |
| RRIRGRPPRLPRPRPRPMMGPRP | 0.409 |
| RRIRGRPPRLPRPRPRPMNAPRP | 0.493 |
| RRIRGRPPRLPRPRPRPMPYPRP | 0.0877 |
| RRIRGRPPRLPRPRPRPMQGPRP | 0.0711 |
| RRIRGRPPRLPRPRPRPMTKPRP | 0.524 |
| RRIRGRPPRLPRPRPRPMTYPRP | 0.274 |
| RRIRGRPPRLPRPRPRPMVMPRP | 0.342 |
| RRIRGRPPRLPRPRPRPMVVPRP | 0.434 |
| RRIRGRPPRLPRPRPRPMWDPRP | 0.639 |
| RRIRGRPPRLPRPRPRPNCFPRP | 0.268 |
| RRIRGRPPRLPRPRPRPNEAPRP | 1.22 |
| RRIRGRPPRLPRPRPRPNECPRP | 0.421 |
| RRIRGRPPRLPRPRPRPNEYPRP | 0.249 |
| RRIRGRPPRLPRPRPRPNFDPRP | 0.491 |
| RRIRGRPPRLPRPRPRPNFTPRP | 0.298 |
| RRIRGRPPRLPRPRPRPNGAPRP | 0.827 |
| RRIRGRPPRLPRPRPRPNGIPRP | 0.287 |
| RRIRGRPPRLPRPRPRPNGVPRP | -0.186 |
| RRIRGRPPRLPRPRPRPNGWPRP | 0.477 |
| RRIRGRPPRLPRPRPRPNLKPRP | 0.189 |

| Sequence | shrunken log2 fold change |
| --- | --- |
| RRIRGRPPRLPRPRPRPNLVPRP | 0.0862 |
| RRIRGRPPRLPRPRPRPNMHPRP | 0.563 |
| RRIRGRPPRLPRPRPRPNPFPRP | 0.189 |
| RRIRGRPPRLPRPRPRPNPWPRP | 0.454 |
| RRIRGRPPRLPRPRPRPNQQPRP | 0.0317 |
| RRIRGRPPRLPRPRPRPNRRPRP | 0.332 |
| RRIRGRPPRLPRPRPRPNSCPRP | 0.0941 |
| RRIRGRPPRLPRPRPRPNSNPRP | 0.0841 |
| RRIRGRPPRLPRPRPRPNVSPRP | -0.0528 |
| RRIRGRPPRLPRPRPRPNWAPRP | 0.363 |
| RRIRGRPPRLPRPRPRPNWKPRP | 0.332 |
| RRIRGRPPRLPRPRPRPNWRPRP | 0.595 |
| RRIRGRPPRLPRPRPRPNYRPRP | 0.0016 |
| RRIRGRPPRLPRPRPRPPDFPRP | 0.46 |
| RRIRGRPPRLPRPRPRPPDSPRP | 0.952 |
| RRIRGRPPRLPRPRPRPPEDPRP | 1.21 |
| RRIRGRPPRLPRPRPRPPETPRP | 1.24 |
| RRIRGRPPRLPRPRPRPPFRPRP | 0.681 |
| RRIRGRPPRLPRPRPRPPGEPRP | 1.14 |
| RRIRGRPPRLPRPRPRPPHDPRP | 1.27 |
| RRIRGRPPRLPRPRPRPPIKPRP | 0.403 |
| RRIRGRPPRLPRPRPRPPKRPRP | 0.701 |
| RRIRGRPPRLPRPRPRPPKSPRP | 0.616 |
| RRIRGRPPRLPRPRPRPPMTPRP | 0.895 |
| RRIRGRPPRLPRPRPRPPNSPRP | 0.301 |

| Sequence | shrunken log2 fold change |
| --- | --- |
| RRIRGRPPRLPRPRPRPPPPPRP | 1.54 |
| RRIRGRPPRLPRPRPRPPPWPRP | 1.41 |
| RRIRGRPPRLPRPRPRPPQTPRP | 1.31 |
| RRIRGRPPRLPRPRPRPPSVPRP | 0.645 |
| RRIRGRPPRLPRPRPRPPTKPRP | 0.968 |
| RRIRGRPPRLPRPRPRPPTPPRP | 1.22 |
| RRIRGRPPRLPRPRPRPPVIPRP | -0.0488 |
| RRIRGRPPRLPRPRPRPPVQPRP | 0.496 |
| RRIRGRPPRLPRPRPRPPWNPRP | 0.411 |
| RRIRGRPPRLPRPRPRPPYCPRP | 0.204 |
| RRIRGRPPRLPRPRPRPQCGPRP | 0.601 |
| RRIRGRPPRLPRPRPRPQDPPRP | 0.337 |
| RRIRGRPPRLPRPRPRPQDSPRP | 0.135 |
| RRIRGRPPRLPRPRPRPQEEPRP | 0.0943 |
| RRIRGRPPRLPRPRPRPQFNPRP | -0.163 |
| RRIRGRPPRLPRPRPRPQFSPRP | 0.0687 |
| RRIRGRPPRLPRPRPRPQFWPRP | 0.553 |
| RRIRGRPPRLPRPRPRPQGFPRP | 0.441 |
| RRIRGRPPRLPRPRPRPQGWPRP | 1.04 |
| RRIRGRPPRLPRPRPRPQGYPRP | 0.045 |
| RRIRGRPPRLPRPRPRPQHEPRP | 0.0159 |
| RRIRGRPPRLPRPRPRPQKSPRP | 0.316 |
| RRIRGRPPRLPRPRPRPQLMPRP | 0.509 |
| RRIRGRPPRLPRPRPRPQMRPRP | 0.899 |
| RRIRGRPPRLPRPRPRPQPAPRP | 0.833 |
